Patent US20140287471A1, “VARIANT CBH I POLYPEPTIDES WITH REDUCED PRODUCT INHIBITION” (BP CORPORATION NORTN AMERICA INC., priority 2011, published 2014)
Substitutions are numbered along the chain they refer to.

B1: 268— Asn (protein, UniProt P62694 18-513, looked up, variant R268N)
Exoglucanase 1: QSACTLQSETHPPLTWQKCSSGGTCTQQTGSVVIDANWRWTHATNSSTNCYDGNTWSSTLCPDNETCAKNCCLDGAAYASTYGVTTSGNSLSIGFVTQSAQKNVGARLYLMASDTTYQEFTLLGNEFSFDVDVSQLPCGLNGALYFVSMDADGGVSKYPTNTAGAKYGTGYCDSQCPRDLKFINGQANVEGWEPSSNNANTGIGGHGSCCSEMDIWEANSISEALTPHPCTTVGQEICEGDGCGGTYSDNNYGGTCDPDGCDWNPYRLGNTSFYGPGSSFTLDTTKKLTVVTQFETSGAINRYYVQNGVTFQQPNAELGSYSGNELNDDYCTAEEAEFGGSSFSDKGGLTQFKKATSGGMVLVMSLWDDYYANMLWLDSTYPTNETSSTPGAVRGSCSTSSGVPAQVESQSPNAKVTFSNIKFGPIGSTGNPSGGNPPGGNRGTTTTRRPATTTGSSPGPTQSHYGQCGGIGYSGPTVCASGTTCQVLNPYYSQCL
B2: 268— Ser (protein, UniProt P62694 18-513, looked up, variant R268S)
Exoglucanase 1: B1 Exoglucanase 1 with N251S
B3: 268— Thr (protein, UniProt P62694 18-513, looked up, variant R268T)
Exoglucanase 1: B1 Exoglucanase 1 with N251T
B4: 268— Cys (protein, UniProt P62694 18-513, looked up, variant R268C)
Exoglucanase 1: B1 Exoglucanase 1 with N251C
B5: 268_+411A Ala (protein, UniProt P62694 18-513, looked up, variant R268A R411A)
Exoglucanase 1: B1 Exoglucanase 1 with N251A, R394A
B6: 268_+411A Ile (protein, UniProt P62694 18-513, looked up, variant R268I R411A)
Exoglucanase 1: B1 Exoglucanase 1 with N251I, R394A
B7: 268_+411A Val (protein, UniProt P62694 18-513, looked up, variant R268V R411A)
Exoglucanase 1: B1 Exoglucanase 1 with N251V, R394A
B8: 268_+411A Trp (protein, UniProt P62694 18-513, looked up, variant R268W R411A)
Exoglucanase 1: B1 Exoglucanase 1 with N251W, R394A
B9: 268_+411A Arg (protein, UniProt P62694 18-513, looked up, variant R411A)
Exoglucanase 1: B1 Exoglucanase 1 with N251R, R394A
B10: 268_+411A Pro (protein, UniProt P62694 18-513, looked up, variant R268P R411A)
Exoglucanase 1: B1 Exoglucanase 1 with N251P, R394A
B11: 268A+411— Ala (protein, UniProt P62694 18-513, looked up, variant R268A R411A)
Exoglucanase 1: B1 Exoglucanase 1 with N251A, R394A
B12: 268A+411— Ile (protein, UniProt P62694 18-513, looked up, variant R268A R411I)
Exoglucanase 1: B1 Exoglucanase 1 with N251A, R394I
B13: 268A+411— Leu (protein, UniProt P62694 18-513, looked up, variant R268A R411L)
Exoglucanase 1: B1 Exoglucanase 1 with N251A, R394L
B14: 268A+411— Val (protein, UniProt P62694 18-513, looked up, variant R268A R411V)
Exoglucanase 1: B1 Exoglucanase 1 with N251A, R394V
B15: 268A+411— Trp (protein, UniProt P62694 18-513, looked up, variant R268A R411W)
Exoglucanase 1: B1 Exoglucanase 1 with N251A, R394W
B16: 268A+411— Asp (protein, UniProt P62694 18-513, looked up, variant R268A R411D)
Exoglucanase 1: B1 Exoglucanase 1 with N251A, R394D
B17: 268A+411— Glu (protein, UniProt P62694 18-513, looked up, variant R268A R411E)
Exoglucanase 1: B1 Exoglucanase 1 with N251A, R394E
B18: 268A+411— Cys (protein, UniProt P62694 18-513, looked up, variant R268A R411C)
Exoglucanase 1: B1 Exoglucanase 1 with N251A, R394C
B19: 268A+411— Gly (protein, UniProt P62694 18-513, looked up, variant R268A R411G)
Exoglucanase 1: B1 Exoglucanase 1 with N251A, R394G
B20: 268A+411— Met (protein, UniProt P62694 18-513, looked up, variant R268A R411M)
Exoglucanase 1: B1 Exoglucanase 1 with N251A, R394M
B21: 411— Tyr (protein, UniProt P62694 18-513, looked up, variant R411Y)
Exoglucanase 1: B1 Exoglucanase 1 with N251R, R394Y
B22: 411— Asp (protein, UniProt P62694 18-513, looked up, variant R411D)
Exoglucanase 1: B1 Exoglucanase 1 with N251R, R394D
B23: 411— Glu (protein, UniProt P62694 18-513, looked up, variant R411E)
Exoglucanase 1: B1 Exoglucanase 1 with N251R, R394E
B24: 411— Ser (protein, UniProt P62694 18-513, looked up, variant R411S)
Exoglucanase 1: B1 Exoglucanase 1 with N251R, R394S
B25: 411— Cys (protein, UniProt P62694 18-513, looked up, variant R411C)
Exoglucanase 1: B1 Exoglucanase 1 with N251R, R394C

assay: 4-MUL cellobiose tolerance/inhibition assay, dose-response IC50 (Example 2); type: biochemical; conditions: 1 mM cellobiose; primary screening; n=1
Protocol: (§1) CBH I activity on was measured using the 4-MUL assay using gluconolactone to inhibit any BG activity. The fluorogenic 4-MUL substrate (SIGMA) was prepared at 100 mM concentration in DMSO. Assays were run in black 96-well-flat-bottomed plates (Costar) and 4-MU fluorescence was read on a BioTek H4 plate reader (ex/em 365/450 nm). Assay plates were filled with buffer (final concentrations of 100 mM MES, pH 6, 25 mM gluconolactone, with or without cellobiose; cellobiose concentrations are listed with appropriate data sets), to which enzyme mixture was added (10-30 μl, 5 μg/mL final) and then assays were initiated by addition of 4-MUL (0.5 mM final concentration in 100 μl total volume). Enzyme mixtures were either CBH I variants from harvested supernatants or standards. Standards included: a negative control, consisting of harvested supernatant from the CBH I knock-out strain; a positive control, consisting of wild-type CBH I from harvested supernatants; and, a commercial CBH I standard (E-CBHI from Megazymes). Activity standards were run by serial dilution of commercial CBH I from 40 to 0.02 μg/mL and 4-MU (SIGMA, prepared at 20 mM in DMSO) (in dilution increments of 2-fold; all dilutions were made using harvested supernatant from the knock-out control). Kinetic rates were monitored over the first 15 mins following 4-MUL addition; initial rates were calculated based on data in the linear range. After 1 hr, a final endpoint read was taken, both before and after reaction quenching (100 μL of 200 mM Sodium Carbonate, pH 10.0). Activity was calculated for kinetic and endpoint reads; background resulting from the CBH I knock-out supernatant remained negligible. 4MU standard curves and HPLC quantification values were used to calculate specific activity.
Tolerance/inhibition values represent activity ratios and/or percent activity remaining/percent activity decreased in the presence versus the absence of cellobiose. Tolerant variants show less inhibition in the presence of cellobiose as compared to wild type, where an activity ratio of 1 (with vs. without a given concentration of cellobiose) is equivalent to 0% inhibition by cellobiose, or 100% tolerance. The effect of cellobiose on CBH I variant performance was monitored by dose-response in the 4MUL assay. Dose-response curves were generated by assaying variant activity in the presence of 6-8 different cellobiose concentrations ranging up to 100 mM cellobiose. CBH I samples were diluted to 5 μg/mL final concentration or were used directly in the case of protein quantification levels below 5 μg/mL. Half maximal inhibitory concentration (IC50) values were determined by plotting 4MUL activity versus cellobiose concentration and fitting with a four parameter dose-response fitting algorithm, with zero activity (or 100% inhibition) constrained to background activity (as established by CBH I knockout values) and with automatic outlier elimination (on GraphPad Prism 5).
Harvested supernatants from active variant isolates were evaluated for cellobiose tolerance at 1 mM cellobiose in the 4-MUL activity assay. Table 8 lists the tolerance of variants at 1 mM. […] Additional cellobiose concentrations at 0.25, 5, 10, 50, and 100 mM were tested leading to full dose-response curves for which half maximal inhibitory concentration (IC50) values were generated (Table 8). The IC50 values support that the variant library has decreased product inhibition, or increased tolerance to cellobiose, when compared to the wild-type enzyme (WT IC50=0.03 mM; see first entry, Table 8).
In one example, the cellobiose tolerance of the library was explored in more detail by generating dose-response curves and determining half maximal inhibitory concentration (IC50) values, the point at which the enzyme is 50% inhibited.

Row | Molecule | Tolerance at 1 mM CB (MUL Data) [%]
1 | B1 | 41
2 | B2 | 45
3 | B3 | 42
4 | B4 | 35
5 | B5 | 65
6 | B6 | 90
7 | B7 | 93
8 | B8 | 84
9 | B9 | 72
10 | B10 | 80
11 | B11 | 83
12 | B12 | 107
13 | B13 | 99
14 | B14 | 102
15 | B15 | 97
16 | B16 | 93
17 | B17 | 95
18 | B18 | 85
19 | B19 | 91
20 | B20 | 97
21 | B21 | 85
22 | B22 | 106
23 | B23 | 76
24 | B24 | 60
25 | B25 | 71

same assay, conditions: primary screening; 10 μL enzyme; cellobiose range 0.0001-100 mM; n=1; read-out: IC50 (MUL Data)

Row | Molecule | IC50 [mM]
26 | B1 | 0.67
27 | B2 | 0.74
28 | B3 | 0.6
29 | B4 | 0.52
30 | B5 | 1.33
31 | B6 | 10.4
32 | B7 | 7.48
33 | B8 | 7.01
34 | B9 | 1.6
35 | B10 | 7.31
36 | B11 | 5.56
37 | B12 | 28
38 | B13 | 25.1
39 | B14 | 15.1
40 | B15 | 28.4
41 | B16 | 10.2
42 | B17 | 16.9
43 | B18 | 7.66
44 | B19 | 12.1
45 | B20 | 11.5
46 | B21 | 5.4
47 | B22 | 2.08
48 | B23 | 2.95
49 | B24 | 1.05
50 | B25 | 1.6

assay: 4-MUL assay, specific activity (Example 2); type: biochemical; conditions: primary screening; 10 μL enzyme; n=1
Protocol: as §1
The specific activity (SA) of the variant library was evaluated in a secondary 4-MUL assay. […] On average, a mutation at position 268 increases the specific activity by 2.5 fold over that of wild type. A mutation at 268 in combination with 411 is around 1.5-1.6 fold higher than wild-type, on average.

Row | Molecule | SA (μmol 4 MU/min/mg) (MUL Data)
51 | B1 | 13.97
52 | B2 | 1.00
53 | B3 | 0.97
54 | B4 | 0.86
55 | B5 | 0.52
56 | B6 | 0.89
57 | B7 | 1.33
58 | B8 | 0.81
59 | B9 | 0.38
60 | B10 | 1.80
61 | B11 | 1.19
62 | B12 | 0.58
63 | B13 | 1.72
64 | B14 | 1.39
65 | B15 | 3.07
66 | B16 | 2.12
67 | B17 | 0.74
68 | B18 | 1.58
69 | B19 | 0.88
70 | B20 | 0.87
71 | B21 | 0.67
72 | B22 | 0.23
73 | B23 | 0.38
74 | B24 | 0.51
75 | B25 | 0.52
